Results: the supplement of paper PMC9170038

Test system: MS2 coat protein
Assay: apparent KD of MS2 coat protein; designed switch direction (-1 OFF switch, 1 ON switch): -1; higher = weaker reporter binding
Method in brief: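 For each design, the apparent KD is the median over clusters of curves fitted to normalised cluster fluorescence. Clusters held RNA switches with common flanks, transcribed on Illumina chips by stalled E. coli RNA polymerase. These were titrated with SNAP-549-labelled MS2 coat protein, doubling from 0.7 or 1.5 nM to 3 µM, without input, with 200 uM small-molecule ligand, or with an oligonucleotide input.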

[1] = Eterna round: R95, input ligand: FMN 200 uM
[2] = Eterna round: R95, input ligand: microRNA oligo, concentration not stated
[3] = Eterna round: R95, input ligand: none
[4] = input ligand: microRNA oligo, concentration not stated

UGACAGUGAGGAUAUUAUCUGAGGGACAUGAGGAUCACCCAUGUGCACUCACGGGCCCAGUAAGAAGGCACGAGCU [EX5 B.23] (Eterna round: R97, puzzle: Exclusion 5)
apparent KD of MS2 coat protein (input ligand: FMN 200 uM): 18.1 nM
apparent KD of MS2 coat protein (input ligand: none): 18.8 nM

UGAGCAUCAGGAUAUACAAGGCGACCGUGAGGUCGAAGGUUACAUGAGGAUCACCCAUGUAGAAGGGAUGUUCU [jl-ex2-4.11] (Eterna round: R97, puzzle: Exclusion 2)
apparent KD of MS2 coat protein (input ligand: FMN 200 uM): 49.4 nM
apparent KD of MS2 coat protein (input ligand: none): 25.4 nM

UGAGCAUCAGGAUAUACAAGGCGACCGUGAGGUCGAGGGUUACAUGAGGAUCACCCAUGUAGAAGGGAUGUUCU [jl-ex2-4.09] (Eterna round: R97, puzzle: Exclusion 2)
apparent KD of MS2 coat protein (input ligand: FMN 200 uM): 196 nM
apparent KD of MS2 coat protein (input ligand: none): 43.4 nM

UGAGGACAUGAGGAUCACCCAUGUAAGGAUAUGCGGAGAGCUUGGAGAGGUUGAGGAGGCAGAAGGUACAGGAC [JR_Exclu1_Sub048] (puzzle: Exclusion 1)
apparent KD of MS2 coat protein [1]: 47.7 nM
apparent KD of MS2 coat protein [2]: 48.3 nM
apparent KD of MS2 coat protein [3]: 57 nM

UGAGUGCUGCGAGGAUAUACAUGAGGAUCACCCAUGUAAUCGUGUGAGGCAAAGCCUCACACGAUGUAGAAGGCGCAGUACUCU [Mat - Exclusion NG 2 - Mod of JL - D23] (Eterna round: R96, puzzle: Exclusion NG 2)
apparent KD of MS2 coat protein (input ligand: FMN 200 uM): 12.8 nM
apparent KD of MS2 coat protein [4]: 11.4 nM
apparent KD of MS2 coat protein (input ligand: none): 18.2 nM

UGAGUGGUGCGAGGAUAUACAUGAGGAUCACCCAUGUAAACGUGUGAGGCUUUGCCUCACACGAUGUAGAAGGCGCACUACUCU [Mat - Exclusion NG 2 - Mod of JL - D13] (Eterna round: R96, puzzle: Exclusion NG 2)
apparent KD of MS2 coat protein (input ligand: FMN 200 uM): 15.6 nM
apparent KD of MS2 coat protein [4]: 9.36 nM
apparent KD of MS2 coat protein (input ligand: none): 13.6 nM

UGAUCUAGCGGAGGAUAUACAUGAGGAUCACCCAUGUAGUAGUGAGUACCGUAGUGCUCACUUGUGUAGAAGGCCGCUAGAUCU [JL ENG2 3.60] (Eterna round: R96, puzzle: Exclusion NG 2)
apparent KD of MS2 coat protein (input ligand: FMN 200 uM): 17.9 nM
apparent KD of MS2 coat protein [4]: 9.86 nM
apparent KD of MS2 coat protein (input ligand: none): 13.5 nM

UGAUCUUGUGUUAGGAUAUGCUGGUUUUUUUUUCAGCAGAAGGGACAUGAGGAUCACCCAUGUUCUCUCUUUUU [Magic-10] (puzzle: Brourd's mod of Exclusion 4)
apparent KD of MS2 coat protein [2]: 15 nM

UGCAAGCUUUAAAGAUCCUACAUGAGGAUCACCCAUGUGCUCGUCUUAUAACGUACUGUGACGAAAGUCACGGUACG [JL TOV1 3.96] (Eterna round: R97, puzzle: Sensor, turn-off variant 1)
apparent KD of MS2 coat protein (input ligand: FMN 200 uM): 324 nM
apparent KD of MS2 coat protein (input ligand: none): 315 nM

UGCAGACGAGGAUAUAAACGAUAUAACAUGAGGAUCACCCAUGUACGAUCGAAUGAUCGUUUAGAAGGCGUCUGCA [E5/10-A1] (Eterna round: R97, puzzle: Exclusion 5)
apparent KD of MS2 coat protein (input ligand: FMN 200 uM): 16.6 nM
apparent KD of MS2 coat protein (input ligand: none): 15.7 nM

UGCAGACGAGGAUAUGAUUAAUAAUACAUGAGGAUCACCCAUGUAAUACUGAUCUAUGGAUCAGAAGGCGUCUGCA [E5/6-A1] (Eterna round: R97, puzzle: Exclusion 5)
apparent KD of MS2 coat protein (input ligand: FMN 200 uM): 11.4 nM
apparent KD of MS2 coat protein (input ligand: none): 12.9 nM

UGCAGUGAUCCAGAAUGUUACAUGAGGAUCACCCAUGUUAGUAUUGUUUAGUUGUAUAAGUUUGUUGUUCGUUUUAU [JR_STOV1_v2_Sub079] (Eterna round: R97, puzzle: Sensor, turn-off variant 1)
apparent KD of MS2 coat protein (input ligand: FMN 200 uM): 68.8 nM
apparent KD of MS2 coat protein (input ligand: none): 202 nM

UGCAUGGUAGGAUAUACGGAACAUUAGGGUUUGUUGUGUGGACAUGAGGAUCACCCAUGUAGAAGGGCCGUGCU [JL-ex2-2.15 mat747 mod] (puzzle: Exclusion 2)
apparent KD of MS2 coat protein [2]: 40.4 nM

UGCAUGUAAGGAUAUGCAUCCGCCAACGAACCGGCGGCACAGCAGAAGGUACAUGAGGAUCACCCAUGUGUCCC [Isonrian] (Eterna round: R96, puzzle: Exclusion 4)
apparent KD of MS2 coat protein (input ligand: FMN 200 uM): 357 nM
apparent KD of MS2 coat protein [4]: 25 nM
apparent KD of MS2 coat protein (input ligand: none): 29.8 nM

UGCAUGUCAGGAUAUCGUGCAUACAACGAAAGUUCUAUGUGCGAGAAGGGACAUGAGGAUCACCCAUGUCUUAG [Omei Ex4 A18] (Eterna round: R97, puzzle: Exclusion 4)
apparent KD of MS2 coat protein (input ligand: FMN 200 uM): 67.1 nM
apparent KD of MS2 coat protein (input ligand: none): 22.6 nM

UGCCGAAGAGGAUAUACAUUGAAUUUGAUUCAUGUAAAACUACAUGAGGAUCACCCAUGUAGAAGGCUUUGGCU [Mat - Exclusion 2 - JL Mod - D61] (Eterna round: R97, puzzle: Exclusion 2)
apparent KD of MS2 coat protein (input ligand: FMN 200 uM): 34.2 nM
apparent KD of MS2 coat protein (input ligand: none): 15.3 nM

UGCGAAGAGUGAGGAUAUGUGCGACAAAGUUGCACAGAAGGCACAUGAGGAUCACCCAUGUAAGCUAGGUCGAAAGACCUAGCG [Omei Exc(NG)1 Av5] (Eterna round: R96, puzzle: Exclusion NG 1)
apparent KD of MS2 coat protein (input ligand: FMN 200 uM): 106 nM
apparent KD of MS2 coat protein [4]: 40.6 nM
apparent KD of MS2 coat protein (input ligand: none): 43.4 nM

UGCUACAUGAGGAUCACCCAUGUAAUGUGGGAAUCGUUAGGACAGGAUAUGAUUGUAUUGUUUUUUCAGAAGGGUCAUUACUUU [JR_ExcNG3_Sub012] (Eterna round: R96, puzzle: Exclusion NG 3)
apparent KD of MS2 coat protein [4]: 212 nM

UGCUACGGAGGAUAUACAUGAGGAUCACCCAUGUGUGAGAUUUGGCCGAGAGGCCAGUGUAGAAGGCCGUAGCU [jl-ex3-4.19 jl mod] (Eterna round: R97, puzzle: Exclusion 3)
apparent KD of MS2 coat protein (input ligand: FMN 200 uM): 615 nM
apparent KD of MS2 coat protein (input ligand: none): 193 nM

UGGCUUUGAGGAUAUACAUUGAAUAAGAUUCAUGUAAAACUACAUGAGGAUCACCCAUGUAGAAGGCAAGGCCU [Mat - Exclusion 2 - JL Mod - D74] (Eterna round: R97, puzzle: Exclusion 2)
apparent KD of MS2 coat protein (input ligand: FMN 200 uM): 26.9 nM
apparent KD of MS2 coat protein (input ligand: none): 16 nM

UGGGUUCUCCAUAGAAGUAACAUGAGGAUCACCCAUGUAGGGCAAGUUUUUUGCUCGUCAUAGGUUGUGGGUUUGGA [JR_SV3TOV1_Sub018] (puzzle: Sensor v3, turn-off variant 1)
apparent KD of MS2 coat protein [1]: 578 nM
apparent KD of MS2 coat protein [2]: 491 nM
apparent KD of MS2 coat protein [3]: 660 nM

UGGGUUCUCCAUGGAAGUAACAUGAGGAUCACCCAUGUAGGGCAAGUUUUUUGCUCGUCAUAGGCCGUGGGUUUGGA [JR_SV3TOV1_Sub019] (puzzle: Sensor v3, turn-off variant 1)
apparent KD of MS2 coat protein [1]: 252 nM
apparent KD of MS2 coat protein [2]: 248 nM
apparent KD of MS2 coat protein [3]: 305 nM

UGGUAACAUGAGGAUCACCCAUGUCAGGAUAUCAGUAAGAAUAGAUGAGAGUAGAAGAUGAGAAGGGACUAUAU [Excluse me! 7 - Jieux - Exclusion 1] (puzzle: Exclusion 1)
apparent KD of MS2 coat protein [2]: 29.1 nM

UGGUGGAAGCAGGAUAUGCUUGUUUUAUUGAUUGCAGAAGGGCUAACAUGAGGAUCACCCAUGUAAGAGGUGUU [JR_E6_Sub055] (puzzle: Exclusion 6)
apparent KD of MS2 coat protein [2]: 303 nM

UGUACGAUGCGUGCUGACAUGCGUCGUGCAGCAGGUGUUACAUGAGGAUCACCCAUGUCCUCAUUUGCUCGUCUUAU [SL-sv3-2.08 JL mod] (puzzle: Sensor v3, turn-off variant 2)
apparent KD of MS2 coat protein [1]: 250 nM
apparent KD of MS2 coat protein [2]: 250 nM
apparent KD of MS2 coat protein [3]: 337 nM

UGUACUAACACGGAAGUGUUAGUACUAUAAGCUUGUGUUACAUGAGGAUCACCCAUGUCCUCAUAAGCUCGUCUUAA [Mat - Sensor v3 - Turn-off var 2 - D73] (puzzle: Sensor v3, turn-off variant 2)
apparent KD of MS2 coat protein [1]: 43.3 nM
apparent KD of MS2 coat protein [2]: 198 nM
apparent KD of MS2 coat protein [3]: 41 nM

UGUACUAACACGGAAGUGUUAGUACUAUAAGCUUGUGUUACAUGAGGAUCACCCAUGUCCUCAUAAGCUCGUCUUAU [Mat - Sensor v3 - Turn-off var 2 - D74] (puzzle: Sensor v3, turn-off variant 2)
apparent KD of MS2 coat protein [1]: 157 nM
apparent KD of MS2 coat protein [2]: 53.6 nM
apparent KD of MS2 coat protein [3]: 172 nM

UGUAUACAUGAGGAUCACCCAUGUAAGGAUAUGCUUUAUUAUUAUUAUUAUUAUUGUUGCAGAAGGUACAUUAU [LRO-Excl01-07] (Eterna round: R97, puzzle: Exclusion 1)
apparent KD of MS2 coat protein (input ligand: FMN 200 uM): 26.4 nM
apparent KD of MS2 coat protein (input ligand: none): 25.6 nM

UGUAUUAUAGGAUAUCACAACCUGGACAUGAGGAUCACCCAUGUGGUUGCAUGCUGUCGAUGAGAAGGAUAGGGCG [Eternabot (L1) Solution 43] (Eterna round: R97, puzzle: Exclusion 5)
apparent KD of MS2 coat protein (input ligand: FMN 200 uM): 22.8 nM
apparent KD of MS2 coat protein (input ligand: none): 21.9 nM

UGUCUGUCAGGAUAUUCGAGUUCGAGUGAAAGCUUGAGCUUGAAGAAGGGACAUGAGGAUCACCCAUGUGGACG [-28.5, -27.4 kcal, A 27%, 1bis-(ca)1] (Eterna round: R97, puzzle: Exclusion 4)
apparent KD of MS2 coat protein (input ligand: FMN 200 uM): 87.8 nM
apparent KD of MS2 coat protein (input ligand: none): 50.1 nM

UGUGAGCUAGGAUAUGCUUUGGGCUCGCUUUCCUUCGAUAAACUUGAGGAUCACCCAAGUAGAAGGAGCUUGCA [Mod 31 - Jieux - Exclusion 2] (Eterna round: R97, puzzle: Exclusion 2)
apparent KD of MS2 coat protein (input ligand: FMN 200 uM): 39.6 nM
apparent KD of MS2 coat protein (input ligand: none): 20.4 nM

UGUGUGUGAGGAUAUACAAUGCGCGCGCGAAAGUGUGUGUUACAUGAGGAUCACCCAUGUAGAAGGCGCGCGCG [-31, -27.8 kcal A 24%, 6,6bis] (Eterna round: R97, puzzle: Exclusion 2)
apparent KD of MS2 coat protein (input ligand: FMN 200 uM): 15.7 nM
apparent KD of MS2 coat protein (input ligand: none): 17 nM

UGUUGGCGAGGAUAUACAUGAGGAUCACCCAUGUGAGAGAAAAAAGUGAGGAAGAAAAGUAGAAGGCGCUGACA [salish99_ex3_r3_045] (puzzle: Exclusion 3)
apparent KD of MS2 coat protein [1]: 371 nM
apparent KD of MS2 coat protein [2]: 42.5 nM
apparent KD of MS2 coat protein [3]: 48.4 nM

UGUUGUCGCGCAGGAUAUGUAUGAGGAUCACCCAUAAGAGUAUAUUUACCAUGAGGAUCACCCAUGUAGAAGGGCGGGACAACA [pwkr exNG2 2xF5 1xFMN.11] (Eterna round: R96, puzzle: Exclusion NG 2)
apparent KD of MS2 coat protein (input ligand: FMN 200 uM): 105 nM
apparent KD of MS2 coat protein [4]: 46.6 nM
apparent KD of MS2 coat protein (input ligand: none): 73.6 nM
